Reference: paper doi:10.1101/2020.04.07.028951 (bioRxiv, 2020)

Legend:
[1] = target: Ethanoligenens harbinense CBS-PPase (ehPPase) (Ethanoligenens harbinense); test: AUC
[2] = target: Ethanoligenens harbinense CBS-PPase (ehPPase) (Ethanoligenens harbinense); test: cross-linking
[3] = target: dhPPaseΔCDC, separate catalytic part of D. hafniense CBS-PPase (Desulfitobacterium hafniense); test: AUC
[4] = target: dhPPaseΔCDC, separate catalytic part of D. hafniense CBS-PPase (Desulfitobacterium hafniense); test: cross-linking
[5] = target: dhPPaseΔCDC, separate catalytic part of D. hafniense CBS-PPase (Desulfitobacterium hafniense); test: enzyme activity after dilution
[6] = target: Clostridium novyi CBS-PPase (cnPPase) (Clostridium novyi); test: AUC
[7] = target: Clostridium novyi CBS-PPase (cnPPase) (Clostridium novyi); test: cross-linking
[8] = target: Eggerthella lenta CBS-PPase (elPPase) (Eggerthella lenta); test: AUC
[9] = target: dhCDC, separate regulatory part of dhPPase (residues 63-306) (Desulfitobacterium hafniense); test: AUC
[10] = target: dhCDC, separate regulatory part of dhPPase (residues 63-306) (Desulfitobacterium hafniense); test: AUC; remark: listed apart in the source
[11] = target: dhCDC, separate regulatory part of dhPPase (residues 63-306) (Desulfitobacterium hafniense); test: cross-linking
[12] = target: Desulfitobacterium hafniense CBS-PPase (dhPPase), full-size (Desulfitobacterium hafniense); test: AUC
[13] = target: Desulfitobacterium hafniense CBS-PPase (dhPPase), full-size (Desulfitobacterium hafniense); test: cross-linking
[14] = target: Desulfitobacterium hafniense CBS-PPase (dhPPase), full-size (Desulfitobacterium hafniense); test: enzyme activity after dilution
cross-linking = target: the molecule itself; test: cross-linking

Molecule “Ethanoligenens harbinense CBS-PPase (ehPPase) (enzyme)” has a stoichiometry N [1] of 4 and a stoichiometry N [2] of 2.

For “dhPPaseΔCDC, separate catalytic part of D. hafniense CBS-PPase (enzyme)”, the stoichiometry N [3] was 2, the stoichiometry N [4] was 2 and the koff [5] was 0.04 s⁻¹. It also gave a percent dimeric at 5.8 µM [5] of 37%.

In the case of “Clostridium novyi CBS-PPase (cnPPase) (enzyme)”, the stoichiometry N [6] is reported as 4 and the stoichiometry N [7] is reported as 4.

For “Eggerthella lenta CBS-PPase (elPPase) (enzyme)”, the stoichiometry N [8] was 4.

With “dhCDC, separate regulatory part of dhPPase (residues 63-306) (domain or fragment)” the stoichiometry N [9] was 2, the stoichiometry N [10] was 2 and the stoichiometry N [11] was 2.

For “Desulfitobacterium hafniense CBS-PPase (dhPPase), full-size (enzyme)”, the stoichiometry N [12] was 4, the stoichiometry N [13] was 4 and the percent dissociated at 3 µM [14] was 10%. For the same molecule, the percent tetrameric at 1 µM [14] was 79%.

B1: Clostridium perfringens CBS-PPase (cpPPase) (enzyme)
chain: MKDVIYITGHKNPDSDSICAALAYAEFKNKTQDTPAIPVRLGNVSQETQYILDYFGVEAPQFLETVKLKVEDLEMDKIAPLAPEVSLKMAWNIMRDKNLKSIPVADGNNHLLGMLSTSNITATYMDIWDSNILAKSATSLDNILDTLSAEAQNINEERKVFPGKVVVAAMQAESLKEFISEGDIAIAGDRAEIQAELIELKVSLLIVTGGHTPSKEIIELAKKNNITVITTPHDSFTASRLIVQSLPVDYVMTKDNLVAVSTDDLVEDVKVTMSETRYSNYPVIDENNKVVGSIARFHLISTHKKKVIQVDHNERGQSVHGLEDAEVLEIIDHHRVADIQTGNPIYFRNEPLGSTSTIVAKRFFENGIRPSREAAGLLCGAIISDTLLFKSPTCTPQDVKMCRKLAEIAGIVPETFAKEMFKAGTSLKGKSIEEIFNADFKPFTIEGVKVGVAQVNTMDIEGFMPLKGEMLDYMNQKAESMGLEMIMLLLTDIINEGSQILVAGRSPEIAEEAFKVKLEDSTTFLPGVLSRKKQVVPPLTQIITTRVSK
In the case of B1, the “stoichiometry N” value (cross-linking) is reported as 4.
